The values below come from patent US20120316071A1 (published 2012).

Where a chain is given by its changes, count along the chain named. Names and notes keep the numbering of the source.

The target of test [1] is T1, rHuman P-Cadherin/Fc Chimera, CF (R&D Systems Cat#861-PC) (human, UniProt P22223 108-654).
T1 construct: Bought recombinant Fc chimera; Fc part of the bought chimera not given
Kind of test: ECL Multispot (MSD) assay, antigen spotted on plate, 10 nM Fab; blank spot 407.

The target of test [2] is T2, rHuman IGF-1 sR, CF (R&D Systems Cat#391-GR) (human, UniProt P08069 31-932).
T2 construct: Bought soluble receptor; also called insulin-like growth factor-1 soluble receptor
Described as above.

Test [3] deals with T3, rHuman HGF R/c-MET/Fc Chimera, CF (R&D Systems Cat#358-MT/CF) (human, UniProt P08581 25-932).
T3 construct: Bought recombinant Fc chimera; also called HGF R/Fc; hepatocyte growth factor receptor; Fc part of the bought chimera not given
The description is as above.

For test [4], the target named is T4, rHuman EGF R/Fc Chimera, CF (R&D Systems Cat#344-ER) (human, UniProt P00533 25-645).
T4 construct: Bought recombinant Fc chimera; also called epidermal growth factor receptor; Fc part of the bought chimera not given
The test is described as above.

The target in test [5] is T5, rHuman ErbB2/Fc Chimera, CF (R&D Systems Cat#1129-ER) (human, UniProt P04626 23-652).
T5 construct: Bought recombinant Fc chimera; also called human epidermal growth factor 2 receptor; Fc part of the bought chimera not given
The description is as above.

Test [6] deals with T6, Recombinant Human DLL4 (R&D Systems Cat#1506-D4/CF) (human, UniProt Q9NR61 27-524).
T6 construct: Bought recombinant protein; also called delta-like protein 4; rHuman DLL4
The description is as above.

Test [7] has as its target T1, rHuman P-Cadherin/Fc Chimera, CF (R&D …). Kind of test: ECL Multispot (MSD) assay, antigen spotted on plate, 10 nM Fab; blank spot 338.
The target in test [8] is T2, rHuman IGF-1 sR, CF (R&D Systems …). The description is as above.
Test [9] addresses T3, rHuman HGF R/c-MET/Fc Chimera, CF (R&D …). Described as above.
Test [10] concerns the target T4, rHuman EGF R/Fc Chimera, CF (R&D …). The test is described as above.
For test [11], the target named is T5, rHuman ErbB2/Fc Chimera, CF (R&D …). The test is described as above.
For test [12], the target named is T6, Recombinant Human DLL4 (R&D Systems …). The test is described as above.
For test [13], the target named is T7, rHuman EGF R/Fc Chimera, CF (R&D Systems Cat#344-ER) (human, UniProt P00533 25-645).
T7 construct: Bought protein; also called epidermal growth factor receptor
Kind of test: ECL multispot (MSD), antigen spotted; blank spot of this well 271.

For test [14], the target named is T8, rHuman HGF R/c-MET/Fc Chimera, CF (R&D Systems Cat#358-MT/CF) (human, UniProt P08581 25-932).
T8 construct: Bought protein; also called HGF R/Fc; hepatocyte growth factor receptor
Described as above.

Test [15] concerns the target T9, rHuman CD44/Fc Chimera, CF (R&D Systems Cat#3660-CD) (human, UniProt P16070 21-220).
T9 construct: Bought protein
The description is as above.

Test [16] concerns the target T10, rHuman IGF-1 sR, CF (R&D Systems Cat#391-GR) (human, UniProt P08069 31-932).
T10 construct: Bought soluble receptor; also called insulin-like growth factor-1 soluble receptor
The test is described as above.

The target of test [17] is T11, rHuman Erythropoietin R/Fc Chimera, CF (R&D Systems Cat#963-ER) (human, UniProt P19235 25-250).
T11 construct: Bought protein; also called EPO R; EPO R/Fc
T11 sequence (looked up): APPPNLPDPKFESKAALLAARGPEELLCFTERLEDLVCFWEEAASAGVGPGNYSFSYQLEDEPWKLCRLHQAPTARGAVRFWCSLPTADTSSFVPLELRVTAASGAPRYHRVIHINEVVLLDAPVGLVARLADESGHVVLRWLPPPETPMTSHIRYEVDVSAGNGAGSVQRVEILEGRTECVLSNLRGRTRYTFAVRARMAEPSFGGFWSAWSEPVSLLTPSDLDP
The test is described as above.

Test [18] has as its target T12, rHuman P-Cadherin/Fc Chimera, CF (R&D Systems Cat#861-PC) (human, UniProt P22223 108-654).
T12 construct: Bought protein
The description is as above.

Test [19] deals with T13, rHuman Notch-1/Fc Chimera, CF (R&D Systems Cat#3647-TK) (human, UniProt P46531 19-526).
T13 construct: Bought protein
The description is as above.

The target of test [20] is T14, Recombinant Human DLL4 (R&D Systems Cat#1506-D4/CF) (human, UniProt Q9NR61 27-524).
T14 construct: Bought recombinant protein; also called delta-like protein 4; rHuman DLL4
The description is as above.

The target of test [21] is T15, rHuman ErbB2/Fc Chimera, CF (R&D Systems Cat#1129-ER) (human, UniProt P04626 23-652).
T15 construct: Bought protein; also called human epidermal growth factor 2 receptor
Described as above.

Test [22] deals with T16, Recombinant Human DLL4 (human, UniProt Q9NR61 27-524).
T16 construct: also called delta-like protein 4; rHuman DLL4
Kind of test: ECL (MSD) multispot binding assay, DLL4 signal over blank spot.

Test [23] has as its target T16, Recombinant Human DLL4. Kind of test: ECL (MSD) multispot binding assay, DLL4 spotted on plate, Fab in solution.
In test [24] the target is T17, Recombinant Human DLL4 (delta-like protein 4) (human, UniProt Q9NR61 27-524).
T17 construct: Bought recombinant protein; also called rHuman DLL4
The test is described as follows: ECL Multispot (MSD) assay, antigens spotted on plate, 10 nM Fab; blank of this well 184.

The target of test [25] is T18, rHuman HGF R/c-MET/Fc Chimera (human, UniProt P08581 25-932).
T18 construct: Bought from R&D Systems; also called HGF R/Fc; not shown: Fc part of a bought chimera
Described as above.

Test [26] addresses T19, rHuman IGF-1 sR (insulin-like growth factor-1 soluble receptor) (human, UniProt P08069 31-932).
T19 construct: Bought soluble receptor
Described as above.

Test [27] concerns the target T20, rHuman EGF R/Fc Chimera (human, UniProt P00533 25-645).
T20 construct: Bought from R&D Systems; not shown: Fc part of a bought chimera
Described as above.

The target of test [28] is T21, rHuman ErbB2/Fc Chimera (human, UniProt P04626 23-652).
T21 construct: Bought from R&D Systems; not shown: Fc part of a bought chimera
The description is as above.

Test [29] concerns the target T22, rHuman P-Cadherin/Fc Chimera (human, UniProt P22223 108-654).
T22 construct: Bought from R&D Systems; not shown: Fc part of a bought chimera
The test is described as above.

Test [30] addresses T17, Recombinant Human DLL4 (delta-like …). Kind of test: ECL Multispot (MSD) assay, antigens spotted on plate, 10 nM Fab; blank of this well 254.
The target of test [31] is T18, rHuman HGF R/c-MET/Fc Chimera. The description is as above.
The target in test [32] is T19, rHuman IGF-1 sR (insulin-like growth …). Described as above.
For test [33], the target named is T20, rHuman EGF R/Fc Chimera. The test is described as above.
The target of test [34] is T21, rHuman ErbB2/Fc Chimera. The test is described as above.
The target of test [35] is T22, rHuman P-Cadherin/Fc Chimera. The test is described as above.

T18 sequence (P08581 25-932, change not shown): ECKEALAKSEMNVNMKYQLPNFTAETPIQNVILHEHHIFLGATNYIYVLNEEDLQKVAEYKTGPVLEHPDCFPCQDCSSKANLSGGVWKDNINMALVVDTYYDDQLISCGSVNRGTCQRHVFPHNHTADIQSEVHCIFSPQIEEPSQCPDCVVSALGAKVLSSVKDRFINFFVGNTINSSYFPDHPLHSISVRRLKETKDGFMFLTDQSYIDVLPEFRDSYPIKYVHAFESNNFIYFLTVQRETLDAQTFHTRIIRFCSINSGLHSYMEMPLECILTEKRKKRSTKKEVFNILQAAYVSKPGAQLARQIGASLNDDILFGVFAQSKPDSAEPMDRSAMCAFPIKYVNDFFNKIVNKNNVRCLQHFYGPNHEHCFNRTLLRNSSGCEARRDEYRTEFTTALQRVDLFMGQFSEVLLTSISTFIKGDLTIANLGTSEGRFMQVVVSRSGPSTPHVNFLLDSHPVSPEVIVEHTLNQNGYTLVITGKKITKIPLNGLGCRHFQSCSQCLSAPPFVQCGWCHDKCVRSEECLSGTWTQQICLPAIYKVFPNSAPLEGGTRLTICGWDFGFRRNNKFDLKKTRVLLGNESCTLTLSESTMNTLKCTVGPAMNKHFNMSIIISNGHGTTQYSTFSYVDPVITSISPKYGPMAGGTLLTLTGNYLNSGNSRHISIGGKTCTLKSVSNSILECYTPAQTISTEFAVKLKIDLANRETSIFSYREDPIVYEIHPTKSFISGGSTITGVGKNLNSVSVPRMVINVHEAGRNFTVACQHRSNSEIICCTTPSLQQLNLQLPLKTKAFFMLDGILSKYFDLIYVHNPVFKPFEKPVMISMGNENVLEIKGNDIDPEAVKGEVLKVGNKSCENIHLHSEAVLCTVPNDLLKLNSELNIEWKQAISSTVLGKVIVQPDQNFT

B1: Fab VH1-46_IGHD6-6*01_IGHJ1*01 S102A/S103P/S104F/H111F & L6_IGKJ1*01 (Fab, V domains shown)
VH: QVQLVQSGAEVKKPGASVKVSCKASGYTFTSYYMHWVRQAPGQGLEWMGIINPSGGSTSYAQKFQGRVTMTRDTSTSTVYMELSSLRSEDTAVYYCAREEYAPFSAEYFQFWGQGTLVTVSS
VL: not shown
notes: Fab expressed in E. coli: VH joined to CH1 from Plasmid A (with His6 and Flag tags), VL joined to kappa CL from Plasmid C; also called APFF; H:APFF & L:wt
Turning to B1, the ECL signal in test [1] is 277; in test [2], 357; in [3], 237; in test [4], 329; in test [5], 292; in test [6], 126000. Besides, the ECL signal was 399 in test [7]; 468 in test [8]; 332 in test [9]; 425 in test [10]; 379 in test [11]; 149000 in [12].

B2: Fab VH1-46_IGHD6-6*01_IGHJ1*01 S102A/S103P/S104F (APF) & L6_IGKJ1*01 R91P (Fab, V domains shown)
VH: B1 VH with F111H
VL: EIVLTQSPATLSLSPGERATLSCRASQSVSSYLAWYQQKPGQAPRLLIYDASNRATGIPARFSGSGSGTDFTLTISSLEPEDFAVYYCQQPSNWPPWTFGQGTKVEIKR
notes: Fab made in E. coli: VH cloned into Plasmid A (CH1, His6 and Flag tags), VL into Plasmid C (kappa CL); also called APF / R91P
B2: the ECL signal in test [13] came to 216; in test [14], 273; in test [15] it was 252; in [16] it was 199; in test [17], 275; in test [18], 296. Moreover, the ECL signal in test [19] came to 228; in test [20], 1280; in test [21], 333.

B3: Fab VH1-46_IGHD6-6*01_IGHJ1*01 S102A/S103P/S104F/H111F (APFF) & L6_IGKJ1*01 S92T (Fab, V domains shown)
VH: B1 VH
VL: B2 VL with P91R, S92T
notes: Fab from E. coli; VH in Plasmid A (CH1, His6 and Flag tags), VL in Plasmid C (kappa CL); also called APFF & S92T
Take B3: the Signal/Blank in the test with Recombinant Human DLL4 [22] was found to be 194. In the test with Recombinant Human DLL4 [23], the “ECL signal” value worked out at 54100.

B4: Fab VH1-46_IGHD6-6*01_IGHJ1*01 S102A/S103P/S104F/H111F & L6_IGKJ1*01 (Fab, V domains shown)
VH: B1 VH
VL: not shown
notes: Fab made in E. coli; VH was cloned into Plasmid A (CH1, His6 and Flag tags) and VL into Plasmid C (kappa constant region); also called APFF; H:APFF & L:wt
As for B4, the ECL signal in test [24] stood at 132000; in test [25], 263; in test [26], 173; with rHuman EGF R/Fc Chimera [27], 409; with rHuman ErbB2/Fc Chimera [28], 322; in test [29], 240. For the same molecule, the ECL signal in test [30] is 148000; in test [31], 176; in [32], 306; with rHuman EGF R/Fc Chimera [33] it was 209; with rHuman ErbB2/Fc Chimera [34], 351; in [35] it was 138.
